In US7572589B2, “Diagnosis and treatment of infectious diseases through indel-differentiated proteins” (priority 2001, dated 2009):

Columns and labels:
SHP-1 [1] = biological target: T1, SHP-1 (Homo sapiens, UniProt P29350); conditions: cited from earlier work
T1 construct: made in house

[2] = test system: Macrophages infected with L. donovani; conditions: cells incubated with inhibitor prior to infection; cited from earlier work
SHP-1 [3] = biological target: T2, SHP-1 (Mus musculus, UniProt P29351); assay: SHP-1 phosphatase activity (pNPP) after Profect-1 delivery of purified EF-1α into macrophages; type: cell-based, murine; conditions: purified protein introduced into macrophages
T2 construct: complexes for delivery to macrophages (approximately 2×10^6); endogenous in cells; host or cells: macrophages (RAW 264.7 named in the materials)
Procedure: Approximately 1 μg of purified EF-1α from leishmania or macrophages or an equivalent amount of BSA were incubated separately with Profect 1™ reagent (Targety Systems, Santee, Calif., USA) in serum free media to prepare protein-Profect-1™ complexes for delivery to macrophages (approximately 2×10^6) according to the manufacturer's instructions. After 2-3 hr of incubation, cells were lysed in buffer C (50 mM Tris [pH 7.5], 1% Triton X-100™ and 0.15M NaCl) containing a cocktail of protease inhibitors for 20 min on ice and incubated with anti-SHP-1 for 2 h end-over-end at 4° C. Immune complexes were recovered using protein A-sepharose and after extensive washing with buffer C, immune complexes were assayed for phosphatase activity using pNPP as a substrate.

SHP-1 [4] = biological target: T1, SHP-1; assay: Binding assay of purified EF-1α with GST-SHP-1 glutathione beads, immunoblot; conditions: purified proteins, glutathione-sepharose beads
Procedure: (§1) For binding assays, purified EF-1α from either leishmania or macrophages was incubated with 25 μl (packed volume) of glutathione-agarose beads containing equal amounts of GST-SHP-1. Binding was accomplished by mixing in 100 μl of binding buffer (50 mM HEPES [pH 7.5], 0.15 M NaCl, 1 mM EDTA, 1 mM DTT, 0.01% Triton X-100™ and 1% glycerol) for 2 h at 4° C. The beads were collected by centrifugation and washed four times with binding buffer. Bound EF-1α was eluted by boiling beads in Laemmli sample buffer, separated on SDS-PAGE followed by immunoblotting using anti-EF-1α. Binding of EF-1α to calmodulin-agarose was performed essentially as described above for GST-SHP-1 except that binding buffer contained 0.2 mM CaCl2 instead of EDTA. Also, after incubation, non-bound proteins were removed and affinity beads were assayed for SHP-1 phosphatase activity using pNPP as a substrate. Relative phosphatase activity was assessed by measuring changes in absorbance at 405 nm.

calmodulin = biological target: T3, calmodulin (Homo sapiens, UniProt P0DP23); assay: Binding of purified EF-1α to calmodulin-agarose; conditions: purified proteins
T3 construct: purchased Sigma Chemical Co. (St. Louis, Mo.)
Procedure: as §1

T1 sequence (P29350 whole entry): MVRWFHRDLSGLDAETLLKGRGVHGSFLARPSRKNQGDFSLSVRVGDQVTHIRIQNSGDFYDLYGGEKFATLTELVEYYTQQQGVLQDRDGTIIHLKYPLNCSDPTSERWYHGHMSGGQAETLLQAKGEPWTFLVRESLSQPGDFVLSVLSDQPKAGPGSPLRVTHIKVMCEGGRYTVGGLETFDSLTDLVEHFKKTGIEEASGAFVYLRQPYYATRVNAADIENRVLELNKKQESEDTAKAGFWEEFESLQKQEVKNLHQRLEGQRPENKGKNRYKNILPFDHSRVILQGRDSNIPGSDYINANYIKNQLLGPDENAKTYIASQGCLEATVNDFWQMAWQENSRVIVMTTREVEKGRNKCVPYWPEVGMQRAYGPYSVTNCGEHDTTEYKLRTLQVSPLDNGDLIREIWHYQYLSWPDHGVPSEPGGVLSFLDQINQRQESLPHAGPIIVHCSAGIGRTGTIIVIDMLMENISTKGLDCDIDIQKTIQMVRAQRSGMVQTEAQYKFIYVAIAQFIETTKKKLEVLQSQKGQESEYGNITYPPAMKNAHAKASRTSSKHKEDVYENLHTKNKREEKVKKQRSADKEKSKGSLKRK
T2 sequence (P29351 whole entry): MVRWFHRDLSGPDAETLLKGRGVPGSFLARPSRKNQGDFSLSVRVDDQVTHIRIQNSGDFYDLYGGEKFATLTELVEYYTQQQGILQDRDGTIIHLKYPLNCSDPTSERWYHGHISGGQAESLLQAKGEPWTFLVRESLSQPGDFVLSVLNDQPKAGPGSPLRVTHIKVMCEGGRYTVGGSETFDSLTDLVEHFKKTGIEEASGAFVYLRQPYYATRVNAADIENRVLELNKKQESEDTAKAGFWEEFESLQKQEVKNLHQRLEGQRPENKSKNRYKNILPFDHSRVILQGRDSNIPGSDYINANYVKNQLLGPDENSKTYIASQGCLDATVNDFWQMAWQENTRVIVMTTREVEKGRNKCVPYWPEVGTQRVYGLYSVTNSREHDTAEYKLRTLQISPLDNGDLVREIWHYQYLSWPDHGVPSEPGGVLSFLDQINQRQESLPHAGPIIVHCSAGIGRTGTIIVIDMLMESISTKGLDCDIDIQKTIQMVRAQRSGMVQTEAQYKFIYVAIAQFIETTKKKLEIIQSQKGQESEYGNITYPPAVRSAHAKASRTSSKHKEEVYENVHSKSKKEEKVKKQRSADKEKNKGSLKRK

Molecule: O.O.O.O.O.O.O.O.O.O=C([O-])[C@@H]1[O][Sb]2([O-])([O][Sb]34([OH])[O][C@H]([C@H](O)CO)[C@H]([O]3)[C@H](C(=O)[O-])[O]4)[O][C@H]([C@H](O)CO)[C@@H]1[O]2.[Na+].[Na+].[Na+] [sodium stibogluconate]
- inhibition of SHP-1 (SHP-1 [1]): inhibitor of SHP-1

Molecule: sodium orthovandate
- phenotype of impaired cell signaling and cell deactivation [2]: reversed

B1: macrophage EF-1α: EF-1α purified to near homogeneity from murine macrophages (RAW 264.7) (protein)
chain: GKEKTHINIVVIGHVDSGKSTTTGHLIYKCGGIDKRTIEKFEKEAAEMGKGSFKYAWVLDKLKAERERGITIDISLWKFETSKYYVTIIDAPGHRDFIKNMITGTSQADCAVLIVAAGVGEFEAGISKNGQTREHALLAYTLGVKQLIVGVNKMDSTEPPYSQKRYEEIVKEVSTYIKKIGYNPDTVAFVPISGWNGDNMLEPSANMPWFKGWKVTRKDGSASGTTLLEALDCILPPTRPTDKPLRLPLQDVYKIGGIGTVPVGRVETGVLKPGMVVTFAPVNVTTEVKSVEMHHEALSEALPGDNVGFNVKNVSVKDVRRGNVAGDSKNDPPMEAAGFTAQVIILNHPGQISAGYAPVLDCHTAHIACKFAELKEKIDRRSGKKLEDGPKFLKSGDAAIVDMVPGKPMCVESFSDYPPLGRFAVRDMRQTVAVGVIKAVDKKAAGAGKVTKSAQKAQKAK
- activation of SHP-1 (SHP-1 [3]): activation of SHP-1 was not observed
- binding to GST-SHP-1 (SHP-1 [4]): comparatively little binding
- binding to calmodulin (calmodulin): bound directly and with similar affinities
